Results published in article PMC6200863, “Hydrogen Peroxide-Based Fluorometric Assay for Real-Time Monitoring of SAM-Dependent Methyltransferases” (Frontiers in Bioengineering and Biotechnology, 2018).

Substrate: O=C(O)c1ccccc1O
Assay: Mtn/XOD/HRP-coupled Amplex Red fluorescence, initial rates, non-linear regression
Type: biochemical, Clarkia breweri
Details: 0.5 mM SAM, 5 mM MgCl2, 1 mM KCl, pH 7.5, 30°C, coupling enzymes possibly rate-limiting

B1: SA MTase (salicylic acid methyltransferase) (Clarkia breweri) (protein)
chain: MDVRQVLHMKGGAGENSYAMNSFIQRQVISITKPITEAAITALYSGDTVTTRLAIADLGCSSGPNALFAVTELIKTVEELRKKMGRENSPEYQIFLNDLPGNDFNAIFRSLPIENDVDGVCFINGVPGSFYGRLFPRNTLHFIHSSYSLMWLSQVPIGIESNKGNIYMANTCPQSVLNAYYKQFQEDHALFLRCRAQEVVPGGRMVLTILGRRSEDRASTECCLIWQLLAMALNQMVSEGLIEEEKMDKFNIPQYTPSPTEVEAEILKEGSFLIDHIEASEIYWSSCTKDGDGGGSVEEEGYNVARCMRAVAEPLLLDHFGEAIIEDVFHRYKLLIIERMSKEKTKFINVIVSLIRKSD
B1 was tested, and the Km was 6.8 (±1.0) μM and the kcat was 0.98 (±0.3) min^-1.
